Source: US20070141570A1

Molecular target: RIa isoform of PKA (type I alpha regulatory subunit of cAMP-dependent protein kinase)
Assay: binding in vitro, method not described

## D-AKAP2 (AKAP10) Ile variant, isoleucine at position 646 of SEQ ID NO:2 (from UniProt O43572 507-662)
  fold weaker binding than the Val variant: 3 fold
